The results in this text go back to patent US20220054706A1 (KING ABDULLAH UNIVERSITY OF SCIENCE AND TECHNOLOGY, published 2022).

This data set concerns the molecule itself. The data set can be described thus: 2D NMR (NOESY/TOCSY) of the self-assembling peptide in 90% H2O-10% D2O. Here is the method: 2D NMR of peptide solution was carried out to study the spatial structure during the assembly process. These NMR spectra were recorded on a Bruker Avance III 600 MHz equipped with a 5 mm Z-gradient SmartProbe BB(F)-H-D (BrukerBioSpin™, Rheinstetten, Germany). The samples were prepared from 10 mg of peptide in a mixture of 900 μL of 1 mM 2,2-Dimethyl-2-silapentane-5-sulfonate (DSS) and 100 μL of D₂O. ¹H-NMR was recorded by collecting 32 scans using excitation sculping with gradients pulse program (zgesgp) for water suppression.¹⁰⁹ COSY and TOCSY were then conducted to see the correlation between hydrogens that were coupled to each other. COSY was performed using a time domain of 4096 (F2)×512 (F1), 16 number of scans, a pulse program of cosydfgpph19, and 3-9-19 pulse sequence for water suppression.¹¹⁰⁻¹¹² For TOCSY, the parameters with time domain of 8192 (F2)×512 (F1), 16 number of scans, a pulse program of dipsi2gpph19, and 3-9-19 pulse sequence for water suppression were set. Finally, the NOESY acquisition was carried out with a time-domain size of 2048 (F2)×512 (F1), 32 scan numbers, a pulse program of noesyesgpph19, a mixing time of 400 ms, and water suppression using 3-9-19 pulse sequence. Broker Topspin 3.5pI7 software was used in all NMR experiments for both data collection and spectral analyses.

B1: Ac-Ile-Val-Phe-Lys-NH2 (IVFK) (peptide)
peptide: Ac-IVFK-NH2
notes: Synthetic self-assembling tetrapeptide; In the NMR experiment it stood at 10 mg in 900 uL of 1 mM DSS plus 100 uL D2O; also called aromatic IVFK
Turning to B1, the binding result is given as “binds”.
